Test results as given in PMC4737123.

Key:
[1] = molecular target: purified human IgM (non‐specific IgM) (human); assay: SPR; Biacore 2000; IgM (750 RU) immobilised on a CM4 chip by amine coupling; FV6 or FV2 flowed over (1.125-18 nM); HEPES buffer (0.01 M HEPES, 0.15 M NaCl, 3 mM EDTA, 0.005% P20) pH 7.4, 20°C; global 1:1 interaction model
[2] = molecular target: purified human IgM (non‐specific IgM) (human); assay: AUC; sedimentation velocity, 40 000 r.p.m., 20°C, PBS; FV6 alone, IgM alone, and IgM (0.2 μM) with FV6 at molar ratios 1:1, 1:2 and 1:3; continuous size distribution (SEDFIT)

Substance | Kd [1] [nM] | koff [1] [s⁻¹] | kon [1] [M⁻¹ s⁻¹] | stoichiometry N [2] [FV6 per IgM]
recombinant full‐length IT4VAR04 (a VAR2CSA‐type PfEMP1; FV2) (natural protein) | 0.3 | 0.00051 | 1.8e+06 | 
recombinant full‐length HB3VAR06 (FV6), entire ectodomain of the PfEMP1 protein HB3VAR06 (domain or fragment) | 0.1 | 0.0003 | 2.3e+06 | 2
